Consider 43 molecules from patent US20250215412A1 (NOVOZYMES A S, published 2025).

Substitutions are numbered along the chain they refer to. Names may count otherwise.

The chains are these.
B1: Chryseobacterium sp-62563 propeptide Y45S (protein)
chain: NQDPNLVAKESNETAMKDFGKTVPVGIEKEDGKFKISFMVTAQPSEIKDSKENAAYISMIKTAVENETPIHVFLKANTNEIAKVDKATDDDIRYFKSVFTKEVKEENRK
B2: Chryseobacterium sp-62563 propeptide Y94Q (protein)
chain: B1 chain with S45Y, Y94Q
B3: Chryseobacterium sp-62563 propeptide D90P (protein)
chain: B1 chain with S45Y, D90P
B4: Chryseobacterium sp-62563 propeptide V98Y (protein)
chain: B1 chain with S45Y, V98Y
B5: Chryseobacterium sp-62563 propeptide L74S (protein)
chain: B1 chain with S45Y, L74S
B6: Chryseobacterium sp-62563 propeptide F73T (protein)
chain: B1 chain with S45Y, F73T
B7: Chryseobacterium sp-62563 propeptide Y45R (protein)
chain: B1 chain with S45R
B8: Chryseobacterium sp-62563 propeptide R93P (protein)
chain: B1 chain with S45Y, R93P
B9: Chryseobacterium sp-62563 propeptide V7P (protein)
chain: B1 chain with V7P, S45Y
B10: Chryseobacterium sp-62563 propeptide F95G (protein)
chain: B1 chain with S45Y, F95G
B11: Chryseobacterium sp-62563 propeptide Y45I (protein)
chain: B1 chain with S45I
B12: Chryseobacterium sp-62563 propeptide F99V (protein)
chain: B1 chain with S45Y, F99V
B13: Chryseobacterium sp-62563 propeptide F99D (protein)
chain: B1 chain with S45Y, F99D
B14: Chryseobacterium sp-62563 propeptide F99K (protein)
chain: B1 chain with S45Y, F99K
B15: Chryseobacterium sp-62563 propeptide F73D (protein)
chain: B1 chain with S45Y, F73D
B16: Chryseobacterium sp-62563 propeptide T88P (protein)
chain: B1 chain with S45Y, T88P
B17: Chryseobacterium sp-62563 propeptide F99P (protein)
chain: B1 chain with S45Y, F99P
B18: Chryseobacterium sp-62563 propeptide D49P (protein)
chain: B1 chain with S45Y, D49P
B19: Chryseobacterium sp-62563 propeptide Y94P (protein)
chain: B1 chain with S45Y, Y94P
B20: Chryseobacterium sp-62563 propeptide Y94T (protein)
chain: B1 chain with S45Y, Y94T
B21: Chryseobacterium sp-62563 propeptide Y45T (protein)
chain: B1 chain with S45T
B22: Chryseobacterium sp-62563 propeptide F99W (protein)
chain: B1 chain with S45Y, F99W
B23: Chryseobacterium sp-62563 propeptide P69D (protein)
chain: B1 chain with S45Y, P69D
B24: Chryseobacterium sp-62563 propeptide E52P (protein)
chain: B1 chain with S45Y, E52P
B25: Chryseobacterium sp-62563 propeptide V64L (protein)
chain: B1 chain with S45Y, V64L
B26: Chryseobacterium sp-62563 propeptide K86G (protein)
chain: B1 chain with S45Y, K86G
B27: Chryseobacterium sp-62563 propeptide V98P (protein)
chain: B1 chain with S45Y, V98P
B28: Chryseobacterium sp-62563 propeptide F99Y (protein)
chain: B1 chain with S45Y, F99Y
B29: Chryseobacterium sp-62563 propeptide F99C (protein)
chain: B1 chain with S45Y, F99C
B30: Chryseobacterium sp-62563 propeptide F95D (protein)
chain: B1 chain with S45Y, F95D
B31: Chryseobacterium sp-62563 propeptide Y94I (protein)
chain: B1 chain with S45Y, Y94I
B32: Chryseobacterium sp-62563 propeptide F99H (protein)
chain: B1 chain with S45Y, F99H
B33: Chryseobacterium sp-62563 propeptide F99L (protein)
chain: B1 chain with S45Y, F99L
B34: Chryseobacterium sp-62563 propeptide P69Y (protein)
chain: B1 chain with S45Y, P69Y
B35: Chryseobacterium sp-62563 propeptide F99I (protein)
chain: B1 chain with S45Y, F99I
B36: Chryseobacterium sp-62563 propeptide E67P (protein)
chain: B1 chain with S45Y, E67P
B37: Chryseobacterium sp-62563 propeptide F99Q (protein)
chain: B1 chain with S45Y, F99Q
B38: Chryseobacterium sp-62563 propeptide A76P (protein)
chain: B1 chain with S45Y, A76P
B39: Chryseobacterium sp-62563 propeptide P69W (protein)
chain: B1 chain with S45Y, P69W
B40: Chryseobacterium sp-62563 propeptide Y45M (protein)
chain: B1 chain with S45M
B41: Chryseobacterium sp-62563 propeptide Y94E (protein)
chain: B1 chain with S45Y, Y94E
B42: Chryseobacterium sp-62563 propeptide F99R (protein)
chain: B1 chain with S45Y, F99R
B43: Chryseobacterium sp-62563 propeptide Y94A (protein)
chain: B1 chain with S45Y, Y94A

This test deals with T1, Chryseobacterium sp-62563 deamidase polypeptide (second polypeptide, deamidase domain), wildtype (Chryseobacterium sp-62563).
T1 sequence: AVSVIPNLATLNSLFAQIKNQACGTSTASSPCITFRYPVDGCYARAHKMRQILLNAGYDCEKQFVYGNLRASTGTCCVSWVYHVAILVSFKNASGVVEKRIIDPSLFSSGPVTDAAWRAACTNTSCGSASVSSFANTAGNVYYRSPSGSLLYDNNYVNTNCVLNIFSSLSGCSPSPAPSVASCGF
The experiment in a line: cell-based or functional assay.
For B1, the Leakage activity is 0% and the Relative activity of maturated deamidase (% initial rate) was more than 100.
B2 came in with a Leakage activity of 0%.
For the molecule B3, the Leakage activity worked out at 0% and the Relative activity of maturated deamidase (% initial rate) was found to be 55.
In the same order, the values of B4 are 0% and 31.
On to B5, for which the Leakage activity was found to be 0% and the Relative activity of maturated deamidase (% initial rate) stood at 40.
In the same order, the values of B6 are 0% and 42.
The molecule B7 had a NanoDSF thermal unfolding temperature of 78.1 ° C.
On to B8, for which the Leakage activity amounted to 4% and the Relative activity of maturated deamidase (% initial rate) is more than 100.
Take B9: the Leakage activity was determined as 0%.
As to B10, the Leakage activity turned out to be 0% and the Relative activity of maturated deamidase (% initial rate) was determined as 91.
Molecule B11 showed a NanoDSF thermal unfolding temperature of 76.4 ° C and a Relative activity of maturated deamidase (% initial rate) of more than 100.
B12 gave a Relative activity of maturated deamidase (% initial rate) of more than 100.
Consider B13, for which the Leakage activity amounted to 9% and the Relative activity of maturated deamidase (% initial rate) came to 69.
B14 yielded a Leakage activity of 4%, a NanoDSF thermal unfolding temperature of 75.4 ° C and a Relative activity of maturated deamidase (% initial rate) of more than 100.
In turn, B15 came in with a Leakage activity of 2% and a Relative activity of maturated deamidase (% initial rate) of 31.
In the same order, the values of B16 are 0% and 46.
The molecule B17 had a Relative activity of maturated deamidase (% initial rate) of 33.
B18: the Leakage activity was 0%.
Take B19: the Leakage activity came to 3%, the NanoDSF thermal unfolding temperature came out at 75.2 ° C and the Relative activity of maturated deamidase (% initial rate) came out at 76.
Molecule B20 returned a Leakage activity of 0% and a Relative activity of maturated deamidase (% initial rate) of more than 100.
With B21, the Leakage activity came to 2%, the NanoDSF thermal unfolding temperature worked out at 73.7 ° C and the Relative activity of maturated deamidase (% initial rate) was more than 100.
For B22, the Relative activity of maturated deamidase (% initial rate) worked out at 81.
B23 came in with a NanoDSF thermal unfolding temperature of 70.6 ° C and a Relative activity of maturated deamidase (% initial rate) of 82.
In turn, B24 came in with a Leakage activity of 0%.
For B25, the Leakage activity came out at 0% and the Relative activity of maturated deamidase (% initial rate) was determined as 49.
B26 gave a Leakage activity of 0% and a Relative activity of maturated deamidase (% initial rate) of 34.
For B27 the same measures were 2% and more than 100.
B28: the Relative activity of maturated deamidase (% initial rate) turned out to be 85.
Take B29: the Leakage activity worked out at 0% and the Relative activity of maturated deamidase (% initial rate) was found to be 52.
For B30 the same measures were 7% and 44.
For B31 the same measures were 0% and 60.
In turn, B32 came in with a Relative activity of maturated deamidase (% initial rate) of more than 100.
B33 returned a Relative activity of maturated deamidase (% initial rate) of 46.
B34 gave a Leakage activity of 0% and a Relative activity of maturated deamidase (% initial rate) of more than 100.
B35 registered a Relative activity of maturated deamidase (% initial rate) of 33.
Turning to B36, the Leakage activity stood at 2% and the Relative activity of maturated deamidase (% initial rate) is 53.
In the same order, the values of B37 are 4% and 48.
On to B38, for which the Leakage activity came out at 3%.
The molecule B39 showed a Leakage activity of 0% and a Relative activity of maturated deamidase (% initial rate) of more than 100.
As to B40, the NanoDSF thermal unfolding temperature amounted to 79 ° C and the Relative activity of maturated deamidase (% initial rate) is 40.
The molecule B41 registered a Leakage activity of 0%.
B42 registered a Leakage activity of 0% and a Relative activity of maturated deamidase (% initial rate) of 76.
B43: the Leakage activity was determined as 0% and the Relative activity of maturated deamidase (% initial rate) was 72.
